Data taken from patent US20200399381A1 (I MAB BIOPHARMA US, published 2020).

T1: human IFNAR-1 on cells (human, UniProt P17181 28-557)
T1 sequence (looked up): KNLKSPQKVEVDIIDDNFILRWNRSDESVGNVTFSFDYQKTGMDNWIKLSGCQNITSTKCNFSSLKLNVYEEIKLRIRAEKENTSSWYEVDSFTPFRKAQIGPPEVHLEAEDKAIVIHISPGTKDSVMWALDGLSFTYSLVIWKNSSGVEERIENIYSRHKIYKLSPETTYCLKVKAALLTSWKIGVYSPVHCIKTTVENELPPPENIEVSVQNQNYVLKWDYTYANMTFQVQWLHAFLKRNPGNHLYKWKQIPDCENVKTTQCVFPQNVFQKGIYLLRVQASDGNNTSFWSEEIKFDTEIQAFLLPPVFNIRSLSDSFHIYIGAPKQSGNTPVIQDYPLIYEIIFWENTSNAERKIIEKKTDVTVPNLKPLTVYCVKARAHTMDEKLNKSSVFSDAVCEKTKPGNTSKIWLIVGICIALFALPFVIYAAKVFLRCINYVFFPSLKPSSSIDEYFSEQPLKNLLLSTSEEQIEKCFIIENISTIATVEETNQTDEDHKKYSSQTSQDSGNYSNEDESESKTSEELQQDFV

T2: recombinant His-tagged human IFNAR-1-ECD protein (human, UniProt P17181 28-436)
T2 construct: extracellular domain; the Biacore text says His-tagged human IFNAR-1-ECD; also called His-tagged IFNAR-1; hIFNAR-1 protein; not shown: His tag
T2 sequence (looked up): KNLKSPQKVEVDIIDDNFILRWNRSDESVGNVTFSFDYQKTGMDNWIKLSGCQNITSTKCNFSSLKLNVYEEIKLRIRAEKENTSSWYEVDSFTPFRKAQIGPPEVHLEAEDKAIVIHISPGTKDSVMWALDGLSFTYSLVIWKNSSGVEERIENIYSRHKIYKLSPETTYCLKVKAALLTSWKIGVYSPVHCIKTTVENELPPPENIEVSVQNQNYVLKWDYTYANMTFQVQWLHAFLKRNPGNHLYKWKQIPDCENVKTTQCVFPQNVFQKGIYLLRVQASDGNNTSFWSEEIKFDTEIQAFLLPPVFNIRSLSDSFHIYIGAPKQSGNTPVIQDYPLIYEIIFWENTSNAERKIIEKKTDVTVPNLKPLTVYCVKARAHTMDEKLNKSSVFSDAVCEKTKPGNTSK

T3: human IFNAR-1 protein (form not stated) (human, UniProt P17181 28-436, limits assumed)
T3 construct: bispecific ELISA
T3 sequence (looked up): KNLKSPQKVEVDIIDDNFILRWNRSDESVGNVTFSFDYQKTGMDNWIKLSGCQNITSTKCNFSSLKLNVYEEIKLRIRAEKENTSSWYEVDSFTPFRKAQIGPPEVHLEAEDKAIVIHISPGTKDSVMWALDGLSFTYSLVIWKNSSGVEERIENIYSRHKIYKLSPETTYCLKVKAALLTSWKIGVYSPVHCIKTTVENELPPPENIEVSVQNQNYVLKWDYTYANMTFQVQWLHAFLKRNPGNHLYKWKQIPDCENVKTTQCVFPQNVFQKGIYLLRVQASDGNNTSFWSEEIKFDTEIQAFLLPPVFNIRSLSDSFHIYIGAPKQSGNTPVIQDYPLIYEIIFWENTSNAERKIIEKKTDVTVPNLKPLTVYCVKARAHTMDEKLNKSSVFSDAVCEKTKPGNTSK

B1: 260H8 (antibody, V domains shown)
VH: EVQLQESGPGLAKPSQTLSLTCSVTGYSITSDYWNWIRKFPGNKLEYMGYISYSGSIYYNPSLKSRISITRDTSKNQYYLQLNSVTNEDTATYYCARSGGMYYFDYWGQGTTLTVSS
VL: DIQMTQSPASLSASVGETVTITCRASGNIHNYLAWYQQKQGKSPQLLVYNAKTLEDGVPSRFSGSGSGTQYSLKINSLQPEDFGSYYCQHFWSIPPTFGSGTKLEIK
notes: Hybridoma-derived monoclonal antibody
B2: 269A7 (antibody, V domains shown)
VH: EVQLQESGPGLAKPSQTLSLTCSVTGYSITSDYWNWIRKFPGNKLEYMGYISYSGTIYYNPSLKSRISITRDTSKNQYYLQLNSVTNEDTATYYCARSGGMYYFDYWGQGTTLTVSS
VL: DIQMTQSPASLSASVGETVTITCRASGNIHNYLAWYQQKQGKSPQLLVYNAKTLEDGVPSRFSGSGSGTQYSLKINSLQPEDFGSYYCQHFWSIPPTFGSGTKLEIK
notes: as for B1
B3: 293H10 (antibody, V domains shown)
VH: EVQLQESGPGLAKPSQTLSLTCSVTGYSITSDYWNWIRKFPGNKLEYMGYISYSGNTDYNPSLKSRFSITRDTSKNQFYLQLNSVTTEDTATYYCARSEGMYFFDYWGQGTTLTVSS
VL: DIQMTQSPASLSASVGETVSITCRASGNIHNYLAWYHQKQGKSPQLLVYNAKTLADGVPSRFSGSGSGTQYSLKINSLQPEDFGSYYCQHFWSTPPTFGSGTKLEIK
notes: as for B1
B4: 268E9 (antibody, V domains shown)
VH: EVQLQESGPGLAKPSQTLSLTCSVTGYSITSDYWNWIRKFPGNKLEYMGYISYSGSIYYNPSLKSRISITRATSKNQYYLQLNSVTNEDTATYYCARSGGMYYFDYWGQGTTLTVSS
VL: DIQMTQSPASLSASVGETVTITCRASGNIHNYLAWYQQKQGKSPQLLVYNAKTLEDGVPSRFSGSGSGTQYSLKINSLQPEDFGSYYCQHFWSIPPTFGSGTKLEIK
notes: as for B1
B5: 106A7 (antibody, V domains shown)
VH: EVQLQQSGADLVKPGASVKLSCTTSGFNIKDYYMHWVNQRTEQGLEWIGRIDPEDGETKYAPKFQGKATITADTSSNTAYLQLSSLTSEDTAVYYCARDWGHSFDYWGQGTTLTVSS
VL: DIVMTQSQKFMSTSVGDRVSVTCKASQNVGTTVAWYQQKPGQSPKTLIYSASYRYSGVPDRFTGSGSGTDFTLTISNVQSEDLAEYFCQQYNSYTFGGGTKLEMK
notes: as for B1
B6: 402G3 (antibody, V domains shown)
VH: QVQLQQSGAELVKPGSSVKISCKASGFTFTSHFIHWIKQQPGNGLKWIGWIYPGDDDTEYNHKFNGKATLTADKSSSTAYMHLSSLTSEDSAVYFCARRVEYYNGGFAYWGQGTLVTVSS
VL: DVQMTQSPSYLAAPPGESVSISCKASKNIRNNLGWYQERPGKTPNLLIHSGSTLQSGAPSRFSGGGSGTDFTLTIRSLESEDSAVYYCQQYDQYPLTFGSGTKLEIK
notes: as for B1
B7: 8G11 humanized VH4 + VL2 (antibody, V domains shown)
VH: QVQLVQSGAEVVKPGASVKLSCKGSGFNIKDYYMHWVKQAPGQGLEWIGRIDPEDAETKYAPKFQGRATITADTSTSTAYLELSSLRSEDTAVYYCARGGNFYVMDYWGQGTLVTVSS
VL: DIQLTQSPSFLSTSVGDRVTITCKASQNVGTNVVWYQQKPGKSPKVLIYSASYRVSGVPSRFSGSGSGTEFTLIISSLQPEDFATYYCQQKNNYPYTFGQGTKLEIK
notes: Humanized IgG expressed in HEK293; also called VH4 + VL2 (8G11)
B8: 8G11 humanized VH4 + VL4 (antibody, V domains shown)
VH: QVQLVQSGAEVVKPGASVKLSCKGSGFNIKDYYMHWVKQAPGQGLEWIGRIDPEDAETKYAPKFQGRATITADTSTSTAYLELSSLRSEDTAVYYCARGGNFYVMDYWGQGTLVTVSS
VL: DIQMTQSPSFLSTSVGDRVTVTCKASQNVGTNVVWYQQKPGKSPKVLIYSASYRVSGVPSRFSGSGSGTEFTLIISSVQPEDFATYFCQQKNNYPYTFGQGTKLEIK
notes: Humanized IgG expressed in HEK293; also called VH4 + VL4 (8G11)
B9: 430H6 (antibody, V domains shown)
VH: QVTLKESGPGILQPSQTLSLTCTFSGFSLNTYGMGVGWIRQPSGKGLEWLANIWWDDDKYYNPSLKNRLTISKDTSNNQAFLKITNVDTADTATYFCARHPLPGYKDNYVVDAWGQGASVTVSS
VL: DVVLTQTPGSLSVTLGDQASISCRSSQSLEYSDQYTYLEWYLQKSGQSPQLLIYGVSNRFSGVPDRFIGSGSGTDFTLKISRVEPEDLGVYYCFQATHDPYTFGAGTKLELK
notes: as for B1
B10: 487E3 (antibody, V domains shown)
VH: EVQLQQSGAELVKPGASVKLSCSASGFNIKDCYIHWVKQRTEQGLEWIGRIDPEDGETKYAPKFQAKATITADTSSNTAYLQLNSLTSEDTAVYYCARHCNFLYFDYWGQGSTLTVS
VL: DIVMTQSQKSMSTSLGDRVTVTCKASQNVGTIVAWYQLKPGQSPKTLIYSASYRSSGVPDRFTGSGSGTDFTLTISNVQSEDLAEYFCQQYNNYPVIFGSGTKLEIR
notes: as for B1
B11: 370E5 (antibody, V domains shown)
VH: EVQLQQSGAELVKPGASVKLSCTASGFNIKDYYIHWVKQRTEQGLEWIGRIDPEDGETKYAPKFQGKATITADTSSNTAYLQLSSLTSEDTAVYYCARFGGLTAMDYWGQGTSVTVSS
VL: DIVMTQSQKFMSTSVGDRVSVTCKASQNVGTNVAWYQQKPGQSPKALIYATSYRYSGVPDRFTGSGSGTDFTLTISNVQSEDLAEYFCQQYNNYPYTFGGGTKLEIK
notes: as for B1
B12: 392D6 (antibody, V domains shown)
VH: AVQLQQSGTELVKPGASVKLSCSASGFNIKDYYVHWVKQKTEQGLEWIGRIDPEDGETKYAPKFQGKATVTADTSSNTAYMQLSSLTSEDTAVYYCTRFGGLDAMDYWGQGTSVTVSS
VL: DIVMTQSQKFMSTSVGDRVSVTCKASQNVGTNVAWYQQKPGQSPKPLIYSTSYRYNGVPDRFTGSGSGTEFTLTISNVQSEDLAEYFCQQFNRYPYTFGGGTKLEIK
notes: as for B1
B13: 104A3 (antibody, V domains shown)
VH: EVQLQQSGAELVKPGASVKVSCTGSGFNIKDYYIHWVKQRTEQGLEWIGRIDPEDGETKYAPKFQGKATITSDTSSNTAYLQLSSLTSGDTAVYFCARYDGYYCFDYWGQGTTLTVSS
VL: DIVMTQSQKFMSTSVGDRVSVTCKASQNVGTNVAWYQQKPGQSPKPLIYSTSYRYSGVPDRFTGSGSGTDFTLTISNVQSADLAAYFCQQYNNYPYTFGGGTRLEIK
notes: as for B1
B14: 107E12 (antibody, V domains shown)
VH: EVQLQQSGAEFVKPGASVKLSCTASGFNIKDYYIHWVTQKTEQGLEWIGRIDPEDGETKYAPKFQDKATITADSSSNTAYLQLSSLTSVDTAVYFCSREGSFTGWFPYWGQGTLVSVSA
VL: DIVMTQSQKFMSTSVGDRVSVTCKARQSVGTYVAWYQQKPGQSPKALIYSTSYRYNGVPDRFTGSGSGTDFTLTISNVQSEDLADYFCQQYHSYPYTFGGGTKLEIK
notes: as for B1
B15: 485G10 (antibody, V domains shown)
VH: EVQLQQSGAELVKPGASVKLSCTGSGFNIKDYYIHWVKQRTEQGLEWIGRIDPEDGETKYAPKFQGKATITADTSSNTAYLQLSSLTSEDTVVYYCGRYHGYWALDYWGQGTSVTVSS
VL: DIVMTQSQKFMSTSVGDRVSVTCKTSQNVGTNVAWYQQKPGQSPKPLIYSTSYRYSGVPDRFTGSGSGTDFTLIISNVQSEDLAEYFCHQYFSYPYTFGGGTLLEIK
notes: Hybridoma-derived monoclonal antibody; also called mouse antibody 485G10
B16: 124D12 (antibody, V domains shown)
VH: EVQLQQSGAELVKPGASVKVSCTGSGFNIKDYYIHWVKQRTEQGLEWIGRIDPEDGETKYAPKFQGRATITSDTSSNTAYLQLSSLTSGDTAVYYCARYDGYYCFDYWGQGTTLTVSS
VL: DIVMTQSQKFMSTSVGDRVSVTCKASQNVGTNVAWYQQKPGQSPKPLIYSTSYRYSGVPDRFTGSGSGTDFTLTISNVQSADLAAYFCQQYNNYPYTFGGGTRLEIK
notes: as for B1

What was measured:
[1] = target: T1, human IFNAR-1 on cells; experiment: cell-based or functional assay
[2] = target: T2, recombinant His-tagged human …; experiment: ELISA, coated His-tagged IFNAR-1
Method: This example tested the binding properties of the anti-IFNAR-1 mouse antibodies to the human IFNAR-1 proteins by ELISA assay. In short, His-tagged IFNAR-1 was coated at 0.5 μg/ml overnight and then blocked by 5% BSA in PBS. Serial diluted anti-IFNAR-1 antibodies were incubated with the coated antigen for 1 h at room temperature. The resulting plates were washed with PBS/T and incubated with goat anti-mouse IgG-HRP for 1 h at room temperature. The plates were developed with TMB substrate and analyzed by spectrophotometer at OD 450-630 nm.

[3] = target: T3, human IFNAR-1 protein (form not stated); experiment: affinity ranking of expressed humanized 8G11 IgGs (method not named)

Binder | EC50 (nM), inhibition of IFNα2b-induced SEAP reporter in HEK-Blue IFNα/β cells [1] [nM] | EC50 [2] [pM] | Kd [3] [pM] | koff [3] [s⁻¹] | kon [3] [M⁻¹ s⁻¹]
B1 | 5.07 | 55 |  |  | 
B2 | 6.71 | 476 |  |  | 
B3 | 1.28 | 97 |  |  | 
B4 | 3.87 | 88 |  |  | 
B5 | 3.52 | 99 |  |  | 
B6 | 1.27 | 137 |  |  | 
B7 |  |  | 332 | 9.69e-05 | 292000
B8 |  |  | 372 | 0.000105 | 283000
B9 | 1.3 | 733 |  |  | 
B10 | 0.161 | 28 |  |  | 
B11 | 2.17 | 52 |  |  | 
B12 | 0.824 | 54 |  |  | 
B13 | 1.31 | 56 |  |  | 
B14 | 1.21 | 75 |  |  | 
B15 | 0.286 | 15 |  |  | 
B16 | 0.981 | 62 |  |  | 
